Source: the supplement of paper PMC11246515
± gives the standard deviation of the averaged measurements.

Assay: total protein half-life in vivo (active degradation + dilution); higher = more stable protein
[1] = E. coli NCM3722 delta-clpP delta-lon delta-hslV, growth: N-lim chemostat, doubling time 6 h
[2] = E. coli NCM3722 delta-clpP, growth: N-lim chemostat, doubling time 6 h
[3] = E. coli NCM3722 delta-hslV, growth: N-lim chemostat, doubling time 6 h
[4] = E. coli NCM3722 delta-lon, growth: N-lim chemostat, doubling time 6 h
[5] = E. coli NCM3722 delta-smpB, growth: N-lim chemostat, doubling time 6 h
[6] = wild type E. coli NCM3722, growth: C-lim chemostat, doubling time 3 h
[7] = wild type E. coli NCM3722, growth: C-lim chemostat, doubling time 6 h
[8] = wild type E. coli NCM3722, growth: C-lim chemostat, doubling time 12 h
[9] = wild type E. coli NCM3722, growth: N-lim chemostat, doubling time 6 h
[10] = wild type E. coli NCM3722, growth: N-lim chemostat, doubling time 12 h
[11] = wild type E. coli NCM3722, growth: P-lim chemostat, doubling time 6 h
[12] = wild type E. coli NCM3722, growth: P-lim chemostat, doubling time 12 h

Sequence | total protein half-life in vivo [1] [h] | total protein half-life in vivo [2] [h] | total protein half-life in vivo [3] [h] | total protein half-life in vivo [4] [h] | total protein half-life in vivo [5] [h] | total protein half-life in vivo [6] [h] | total protein half-life in vivo [7] [h] | total protein half-life in vivo [8] [h] | total protein half-life in vivo [9] [h] | total protein half-life in vivo [10] [h] | total protein half-life in vivo [11] [h] | total protein half-life in vivo [12] [h]
MLQFILRRLGLVIPTFIGITLLTFAFVHMIPGDPVMIMAGERGISPERHAQLLAELGLDKPMWQQYLHYIWGVMHGDLGISMKSRIPVWEEFVPRFQATLELGVCAMIFATAVGIPVGVLAAVKRGSIFDHTAVGLALTGYSMPIFWWGMMLIMLVSVHWNLTPVSGRVSDMVFLDDSNPLTGFMLIDTAIWGEDGNFIDAVAHMILPAIVLGTIPLAVIVRMTRSSMLEVLGEDYIRTARAKGLTRMRVIIVHALRNAMLPVVTVIGLQVGTLLAGAILTETIFSWPGLGRWLIDALQRRDYPVVQGGVLLVATMIILVNLLVDLLYGVVNPRIRHKK [P0AEF8] | 6.91 ± 0.36 | 6.54 ± 1.1 | 5.46 ± 0.53 | 5.39 ± 0.46 | 5.95 ± 0.45 | 3.53 ± 0.4 | 6.656 ± 0.039 | 13.1 ± 1.5 | 6.42 ± 0.19 | 13 ± 3.1 | 5.96 ± 0.41 | 11.5 ± 1
MLQISHLYADYGGKPALEDINLTLESGELLVVLGPSGCGKTTLLNLIAGFVPYQHGSIQLAGKRIEGPGAERGVVFQNEGLLPWRNVQDNVAFGLQLAGIEKMQRLEIAHQMLKKVGLEGAEKRYIWQLSGGQRQRVGIARALAANPQLLLLDEPFGALDAFTRDQMQTLLLKLWQETGKQVLLITHDIEEAVFMATELVLLSSGPGRVLERLPLNFARRFVAGESSRSIKSDPQFIAMREYVLSRVFEQREAFS | 4.76 | – | – | – | – | – | – | – | – | – | – | –
MLQIVGALILLIAGFAILRLLFRALISTASALAGLILLCLFGPALLAGYITERITRLFHIRWLAGVFLTIAGMIISFMWGLDGKHIALEAHTFDSVKFILTTALAGGLLAVPLQIKNIQQNGITPEDISKEINGYYCCFYTAFFLMACSACAPLIALQYDISPSLMWWGGLLYWLAALVTLLWAASQIQALKKLTCAISQTLEEQPVLNSKSWLTSLQNDYSLPDSLTERIWLTLISQRISRGELREFELADGNWLLNNAWYERNMAGFNEQLKENLSFTPDELKTLFRNRLNLSPEANDDFLDRCLDGGDWYPFSEGRRFVSFHHVDELRICASCGLTEVHHAPENHKPDPEWYCSSLCRETETLCQEIYERPYNSFISDATANGLILMKLPETWSTNEKMFASGGQGHGFAAERGNHIVDRVRLKNARILGDNNARNGADRLVSGTEIQTKYCSTAARSVGAAFDGQNGQYRYMGNNGPMQLEVPRDQYAGAVETMRNKIREGKVEER | – | 0.668 | – | – | – | – | – | – | – | 0.674 | – | 2.58 ± 0.79
MLQNIRIVLVETSHTGNMGSVARAMKTMGLTNLWLVNPLVKPDSQAIALAAGASDVIGNAHIVDTLDEALAGCSLVVGTSARSRTLPWPMLDPRECGLKSVAEAANTPVALVFGRERVGLTNEELQKCHYHVAIAANPEYSSLNLAMAVQVIAYEVRMAWLATQENGEQVEHEETPYPLVDDLERFYGHLEQTLLATGFIRENHPGQVMNKLRRLFTRARPESQELNILRGILASIEQQNKGNKAE [P0AE01] | 4.67 ± 0.57 | 4.013 ± 0.028 | 4.18 ± 0.18 | 5.15 ± 0.92 | 4.43 ± 0.4 | 2.8 ± 0.32 | 5.41 ± 0.56 | 9.64 ± 0.46 | 4.34 ± 0.23 | 7.52 ± 0.47 | 5.22 ± 0.042 | 10.6 ± 0.77
MLQSNEYFSGKVKSIGFSSSSTGRASVGVMVEGEYTFSTAEPEEMTVISGALNVLLPDATDWQVYEAGSVFNVPGHSEFHLQVAEPTSYLCRYL [P0C037] | 5.23 ± 0.64 | 3.8 ± 0.061 | 3.59 ± 0.28 | 4.706 ± 0.03 | 3.46 ± 0.4 | 2.75 ± 0.14 | 5.02 ± 0.079 | 9.73 ± 2.5 | 3.78 ± 0.38 | 5.6 | 4.25 ± 0.35 | 6.87 ± 0.11
MLQVYLVRHGETQWNAERRIQGQSDSPLTAKGEQQAMQVATRAKELGITHIISSDLGRTRRTAEIIAQACGCDIIFDSRLRELNMGVLEKRHIDSLTEEEENWRRQLVNGTVDGRIPEGESMQELSDRVNAALESCRDLPQGSRPLLVSHGIALGCLVSTILGLPAWAERRLRLRNCSISRVDYQESLWLASGWVVETAGDISHLDAPALDELQR [P0A7A2] | 4.23 ± 1.4 | 2.57 ± 0.17 | 2.36 ± 0.011 | 2.852 ± 0.012 | 2.65 ± 0.051 | 2.75 ± 0.28 | 4.55 ± 0.27 | 7.06 ± 0.16 | 2.71 ± 0.11 | 3.84 ± 0.45 | 4.88 ± 0.12 | 8.06 ± 1
